# pKi: −log10 of the molar value.
# Experiments:
# [1] = biological target: mouse CRF receptor type 2β (mouse) (UniProt Q60748); test: radioligand displacement ([125I-Tyr0,Glu1,Nle17]-sauvagine), CHO membranes
# [2] = biological target: rat CRF receptor type 2α (rat) (UniProt P47866); test: as above
# rat CRF receptor type 2α (rat), sequence (P47866 20-411): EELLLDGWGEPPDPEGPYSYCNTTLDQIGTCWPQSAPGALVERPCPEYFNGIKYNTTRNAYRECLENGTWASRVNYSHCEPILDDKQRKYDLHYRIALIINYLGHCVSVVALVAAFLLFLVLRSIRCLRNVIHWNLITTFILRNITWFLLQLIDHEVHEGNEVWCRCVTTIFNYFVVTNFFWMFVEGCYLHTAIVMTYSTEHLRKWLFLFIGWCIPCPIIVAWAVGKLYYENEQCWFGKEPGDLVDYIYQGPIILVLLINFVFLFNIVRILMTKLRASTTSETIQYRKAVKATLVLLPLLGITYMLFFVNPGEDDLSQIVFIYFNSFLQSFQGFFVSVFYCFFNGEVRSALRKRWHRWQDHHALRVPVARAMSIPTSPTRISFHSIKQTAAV
Substance,pKi [1],pKi [2]
CRF (rat/human) (from UniProt P06850 154-194) (peptide),8.28,8.00
Urocortin (rat) (from UniProt P55090 81-120) (peptide),9.21,8.66

# From patent publication US20040143095A1
